In experiment [1] the target is MHC class II molecules on MHC class II-expressing Raji cells (human). The experiment in a line: direct ELISA, plate-immobilised Raji cells; 10% FBS, 5,000 cells; 31.25 ng/ml. For orientation: An ELISA detects its analyte on a solid surface through an enzyme-linked reagent.
Experiment [2] has the same target. The experiment in a line: direct ELISA, plate-immobilised Raji cells; 10% FBS, 5,000 cells; 500 ng/ml.
Experiment [3] has the same target. The experiment in a line: direct ELISA, plate-immobilised Raji cells; 5% BSA, 5,000 cells; 1000 ng/ml.
Experiment [4] shares this target. The experiment in a line: direct ELISA, plate-immobilised Raji cells; 5% BSA, 5,000 cells; 31.25 ng/ml.
Experiment [5] has the same target. The experiment in a line: direct ELISA, plate-immobilised Raji cells; 10% FBS, 10,000 cells; 1000 ng/ml.
The target is the same in experiment [6]. The experiment in a line: transfer cell ELISA, Raji cells; 15.63 ng/ml; plate row C.
Experiment [7] has the same target. The experiment in a line: direct ELISA, plate-immobilised Raji cells; 10% FBS, 2,500 cells; 62.5 ng/ml.
For experiment [8] the target is unchanged. The experiment in a line: direct ELISA, plate-immobilised Raji cells; 10% FBS, 10,000 cells; 125 ng/ml.
The target is the same in experiment [9]. The experiment in a line: transfer cell ELISA, Raji cells; 1.953 ng/ml; plate row D.
The target is the same in experiment [10]. The experiment in a line: transfer cell ELISA, Raji cells; 0.977 ng/ml; plate row C.
Experiment [11] has the same target. The experiment in a line: direct ELISA, plate-immobilised Raji cells; 10% FBS, 2,500 cells; 250 ng/ml.
The target is the same in experiment [12]. The experiment in a line: direct ELISA, plate-immobilised Raji cells; 5% BSA, 5,000 cells; 62.5 ng/ml.
Experiment [13] has the same target. The experiment in a line: direct ELISA, plate-immobilised Raji cells; 10% FBS, 2,500 cells; 31.25 ng/ml.
Experiment [14] has the same target. The experiment in a line: direct ELISA, plate-immobilised Raji cells; 5% BSA, 5,000 cells; 250 ng/ml.
For experiment [15] the target is unchanged. The experiment in a line: transfer cell ELISA, Raji cells; 31.25 ng/ml; plate row D.
Experiment [16] has the same target. The experiment in a line: transfer cell ELISA, Raji cells; 0.977 ng/ml; plate row D.
For experiment [17] the target is unchanged. The experiment in a line: direct ELISA, plate-immobilised Raji cells; 0.5% Casein, 5,000 cells; 500 ng/ml.
Experiment [18] has the same target. The experiment in a line: direct ELISA, plate-immobilised Raji cells; 3% gelatin, 5,000 cells; 15.625 ng/ml.
For experiment [19] the target is unchanged. The experiment in a line: direct ELISA, plate-immobilised Raji cells; 0.5% Casein, 5,000 cells; 1000 ng/ml.
For experiment [20] the target is unchanged. The experiment in a line: direct ELISA, plate-immobilised Raji cells; 0.5% Casein, 2,500 cells; 1000 ng/ml.
The target is the same in experiment [21]. The experiment in a line: direct ELISA, plate-immobilised Raji cells; 0.5% Casein, 5,000 cells; 31.25 ng/ml.
The target is the same in experiment [22]. The experiment in a line: direct ELISA, plate-immobilised Raji cells; 0.5% Casein, 5,000 cells; 125 ng/ml.
Experiment [23] shares this target. The experiment in a line: direct ELISA, plate-immobilised Raji cells; 3% gelatin, 2,500 cells; 15.625 ng/ml.
The target is the same in experiment [24]. The experiment in a line: direct ELISA, plate-immobilised Raji cells; 0.5% Casein, 10,000 cells; 15.625 ng/ml.
Experiment [25] has the same target. The experiment in a line: BLI; immobilised sample, Raji cells in solution; pH 7.0 control of FIG. 21. In general terms: BLI is a label-free optical method that tracks binding on a fibre tip over time.
Experiment [26] shares this target. The experiment in a line: transfer cell ELISA, Raji cells; 15.63 ng/ml.
For experiment [27] the target is unchanged. The experiment in a line: direct ELISA, plate-immobilised Raji cells; 3% gelatin, 2,500 cells; 500 ng/ml.
Experiment [28] shares this target. The experiment in a line: direct ELISA, plate-immobilised Raji cells; 3% gelatin, 2,500 cells; 1000 ng/ml.
For experiment [29] the target is unchanged. The experiment in a line: BLI; immobilised sample, Raji cells in solution; pH 7.0 control of FIG. 22.
Experiment [30] has the same target. The experiment in a line: BLI; immobilised sample, Raji cells in solution; control of FIG. 19 (37° C., 1 day, no H2O2).
Experiment [31] shares this target. The experiment in a line: BLI; immobilised sample, Raji cells in solution; dark control of FIG. 24.
The target is the same in experiment [32]. The experiment in a line: BLI; IMP321 sample at 100% binding potency, Raji cells in solution; relative to reference standard.
Experiment [33] shares this target. The experiment in a line: BLI; immobilised sample, Raji cells in solution; pH 7.0 control of FIG. 20.

Turning to “IMP321 treated with Peptide-N-Glycosidase F (PNGase F) (Fc fusion)”, the OD (ELISA signal) in experiment [1] was 0.304 OD; in experiment [2], 1.63 OD; in experiment [3], 1.81 OD; in experiment [4], 0.297 OD; in experiment [5] it was 1.34 OD; in [6], 0.035 OD. Besides, the OD (ELISA signal) in [7] was determined as 0.329 OD; in experiment [8], 0.377 OD; in [9], 0.01 OD; in [10], 0.01 OD; in experiment [11], 1.29 OD; in [12] it was 0.303 OD. Besides, the OD (ELISA signal) came out at 0.294 OD in experiment [13], 1.09 OD in [14], 0.049 OD in experiment [15] and 0.01 OD in experiment [16].
Consider “IMP321, recombinant soluble human LAG-3Ig fusion protein (Fc fusion)”, for which the OD (ELISA signal) in experiment [17] was found to be 0.206 OD; in experiment [18], 0.316 OD; in [19], 0.136 OD; in [20], 0.112 OD; in [21], 0.143 OD; in experiment [22] it was 0.197 OD. Moreover, the OD (ELISA signal) in experiment [23] turned out to be 0.295 OD; in experiment [24] it was 0.185 OD; in experiment [26], 0.098 OD; in experiment [27], 2.56 OD; in experiment [28] it was 2.6 OD. Further, the Bioactivity (binding) in experiment [25] is 95%; in [29] it was 94%; in experiment [30] it was 85%; in experiment [31], 100%; in experiment [33], 126%. This substance yielded a Potency determined by BLI assay in experiment [32] of 98%.

(Values after patent US20190361034A1.)
